± gives the uncertainty stated by the source.
B1: GA-binding protein alpha chain, residues 172 to 250; numbered along this chain, Q06546 (parent)
chain: GYRKEQERLGIPYDPIQWSTDQVLHWVVWVMKEFSMTDIDLTTLNISGRELCSLNQEDFFQRVPRGEILWSHLELLRKY

Variants of: B1
Experiment: abundance fitness (aPCA) (normalised: wild type 0, dead -1); higher = more abundant; growth selection in yeast, the domain comes from the species named
Details: Homo sapiens

Row | Variant | abundance fitness
1 | GYRKEQERLGIPYDPIQWSTDQVLHWVVWVMKEFRMTDIDLTTLNISGRELCSLNQEDFFQRVPRGEILWSHLELLRKY | -0.045 ± 0.028
2 | GYRKEQERLGIPYDPIQWSTDQVLHWVVWVMKEFSMTDIDLTTLNISGRELCSLNQEDFFQRVPRSEILWSHLELLRKY | -0.199 ± 0.037
3 | GYRKEQERLGVPYDPIQWSTDQVLHWVVWVMKEFSMTDIDLTTLNISGRELCSLNQEDFFQRVPRGEILWSHLELLRKY | -0.342 ± 0.031
4 | GYRKEQERLGIPYDPIQWSTDQVLHWVVWVMQEFSMTDIDLTTLNISGRELCSLNQEDFFQRVPRGEILWSHLELLRKY | -0.061 ± 0.067
5 | GYRKEQERLGIPYDPIQWSTDQVLHWVVWVMKEFSMTDIDLTTLNISGRELCSLNQEDFFQRVPRGEILWSHLELLVKY | -0.343 ± 0.055
6 | GYRKEQERLGIPYDPIQWSTDQVLHWVVWVMKEFSMTDIDLTTLNISGRELCSLNQEDFFQRVPRGEILWSHLELLHKY | -0.07 ± 0.12
7 | GYRKEQERLGIPYDPIQWSTDQVLHWVVWVMKEFSMTDIDLTTLNISGRELCSLNQEDFFQRVPRGEILSSHLELLRKY | -0.913 ± 0.087
8 | GYRKEQERLGIPYDPIQWSTDQVLHWVMWVMKEFSMTDIDLTTLNISGRELCSLNQEDFFQRVPRGEILWSHLELLRKY | 0.016 ± 0.053
9 | GYRKEQERLGIPYDPIQWSTDQVLHWVRWVMKEFSMTDIDLTTLNISGRELCSLNQEDFFQRVPRGEILWSHLELLRKY | 0.043 ± 0.027
10 | GYRKEQERLGIPYDPIQWSTDQVLHWVWWVMKEFSMTDIDLTTLNISGRELCSLNQEDFFQRVPRGEILWSHLELLRKY | -0.043 ± 0.024
11 | GYRKEQERLGIPEDPIQWSTDQVLHWVVWVMKEFSMTDIDLTTLNISGRELCSLNQEDFFQRVPRGEILWSHLELLRKY | 0 ± 0.048
12 | GYRKEQERLGIPVDPIQWSTDQVLHWVVWVMKEFSMTDIDLTTLNISGRELCSLNQEDFFQRVPRGEILWSHLELLRKY | -0.109 ± 0.032
13 | GYRKEQERLGIPYDPIQWSTDQVLHWVVWVMKEFSMTDIDLTTLNISGRELCSLNQNDFFQRVPRGEILWSHLELLRKY | -0.192 ± 0.099
14 | GYRKEQERLGIPYDPIQWSTDQVLHWVVWVMKEFSMTDIDLTTLNISGRELCSLNQERFFQRVPRGEILWSHLELLRKY | -0.092 ± 0.037
15 | GYRKEQERLGIPYDPIQWSTDQVLHWVVWVMKEFSMTDIDLTTLNISGRELCSLNQENFFQRVPRGEILWSHLELLRKY | -0.188 ± 0.078
16 | GYRKEQERLGIPYDPIQWSTDQVLHWVVWVMKELSMTDIDLTTLNISGRELCSLNQEDFFQRVPRGEILWSHLELLRKY | -0.145 ± 0.039
17 | GYRKEQERLGIPYDPIQWSTTQVLHWVVWVMKEFSMTDIDLTTLNISGRELCSLNQEDFFQRVPRGEILWSHLELLRKY | -0.114 ± 0.055
18 | GYRKEQERLGIPYDPIQWSTDQVLHWVVWVMKEFSMTDIDLTTLNIAGRELCSLNQEDFFQRVPRGEILWSHLELLRKY | -0.161 ± 0.041

Row | Variant | abundance fitness
19 | GYRKEQERLGIPYDPIQWSTDQVLHWVVWVMKEFSMTDIDLTTLNISGRELCSLNWEDFFQRVPRGEILWSHLELLRKY | -0.351 ± 0.065
20 | GYRKEQERLGIPYDPIQWSTDQVLHWVVWVMKEFSMTDIDVTTLNISGRELCSLNQEDFFQRVPRGEILWSHLELLRKY | -0.024 ± 0.038
21 | GYRKEQERLGIPYDPIQWSTDQVLHWVVWVMKEFSMTDIDLTTLNISGRELCSLNQEDFFQRVPRGEILWSHLEWLRKY | -0.104 ± 0.05
22 | GYRKEQERLGIPYDPIQWSTDQVLHWVVWVMKEFSMTDIDLTTLNISGRELCSLIQEDFFQRVPRGEILWSHLELLRKY | -0.244 ± 0.086
23 | GYRKEQERLGIPYDPIQWSTDQVLHWVVWVMKEFSMTDIDLTTLNISGRELCSLGQEDFFQRVPRGEILWSHLELLRKY | -0.02 ± 0.035
24 | GYRKEQERLGIPYDPIQWSTDQVLHWVVWVMKEFSWTDIDLTTLNISGRELCSLNQEDFFQRVPRGEILWSHLELLRKY | -0.118 ± 0.04
25 | GYRKEQERLGIPYDPIQWQTDQVLHWVVWVMKEFSMTDIDLTTLNISGRELCSLNQEDFFQRVPRGEILWSHLELLRKY | -0.225 ± 0.053
26 | GYRKEQERLGIPYRPIQWSTDQVLHWVVWVMKEFSMTDIDLTTLNISGRELCSLNQEDFFQRVPRGEILWSHLELLRKY | -0.954 ± 0.064
27 | GYRKEQERLGIPYDPIQWSTDQVLHWVVWVMKEFSMTYIDLTTLNISGRELCSLNQEDFFQRVPRGEILWSHLELLRKY | -0.261 ± 0.055
28 | GYRKEQERLGIPYDPIQWSTDQVLHWVVWVMKEFSMTWIDLTTLNISGRELCSLNQEDFFQRVPRGEILWSHLELLRKY | -0.149 ± 0.041
29 | GYRKEQERLGIPYDPIQWSTDQVLHWVVWVMKEFSMTDIDLTTLNISGRELCSLNQEDFFQPVPRGEILWSHLELLRKY | -1.06 ± 0.13
30 | GYRKIQERLGIPYDPIQWSTDQVLHWVVWVMKEFSMTDIDLTTLNISGRELCSLNQEDFFQRVPRGEILWSHLELLRKY | 0.004 ± 0.064
31 | GYRKAQERLGIPYDPIQWSTDQVLHWVVWVMKEFSMTDIDLTTLNISGRELCSLNQEDFFQRVPRGEILWSHLELLRKY | -0.608 ± 0.058
32 | GYRKEQERLGIPYDPIQWSTDQVLHWVVWVMKEFSMTDIDLTTFNISGRELCSLNQEDFFQRVPRGEILWSHLELLRKY | -0.108 ± 0.054
33 | GYRKEQERLGIPYDPIEWSTDQVLHWVVWVMKEFSMTDIDLTTLNISGRELCSLNQEDFFQRVPRGEILWSHLELLRKY | 0.049 ± 0.07
34 | GYRKEQERLGIPYDPRQWSTDQVLHWVVWVMKEFSMTDIDLTTLNISGRELCSLNQEDFFQRVPRGEILWSHLELLRKY | -0.013 ± 0.03
35 | GYRKEQERLGIPYDPIQWSTDQVLHWVVWVMKEFSMTDIDLTTLNISGRELCSLNQEDFFQRVPRGEILWSHLELLRIY | -0.009 ± 0.16
